Results on three molecules are retold here after US20240252628A1 (ACCELERON PHARMA, published 2024).

Usually Kd stands for a measure of binding affinity in units of concentration. As usually defined, the koff is the rate constant with which the complex falls apart. Low readings indicate a long-lived complex, high ones a short-lived complex. As usually defined, the kon is the rate constant with which the complex forms. Read a high kon as faster complex formation.

B3: GDF11 (ligand, UniProt O95390 299-407, looked up)
chain: NLGLDCDEHSSESRCCRYPLTVDFEAFGWDWIIAPKRYKANYCSGQCEYMFMQKYPHTHLVQQANPRGSAGPCCTPTKMSPINMLYFNDKQQIIYGKIPGMVVDRCGCS
notes: also called BMP11

Test [1] concerns the target T1, activin A (UniProt P08476 311-426).
T1 construct: The same holds for m2-m11
T1 sequence (looked up): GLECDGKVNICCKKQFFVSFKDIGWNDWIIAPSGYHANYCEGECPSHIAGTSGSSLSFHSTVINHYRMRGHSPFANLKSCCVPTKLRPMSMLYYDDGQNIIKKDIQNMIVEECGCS
Briefly: SPR (Biacore), anti-Fc capture of receptor. Here is the method: (§1) A Biacore™-based binding assay was used to compare ligand binding selectivity of the ActRIIB-Fc:ALK4-Fc heterodimeric complex described above with that of ActRIIB-Fc and ALK4-Fc homodimer complexes. The ActRIIB-Fc:ALK4-Fc heterodimer, ActRIIB-Fc homodimer, and ALK4-Fc homodimer were independently captured onto the system using an anti-Fc antibody. Ligands were injected and allowed to flow over the captured receptor protein. Results are summarized in the table below, in which ligand off-rates (kd) most indicative of effective ligand traps are denoted in bold.

For another test, the target named is T2, GDF8 (UniProt O14793 267-375).
T2 construct: also called myostatin
T2 sequence (looked up): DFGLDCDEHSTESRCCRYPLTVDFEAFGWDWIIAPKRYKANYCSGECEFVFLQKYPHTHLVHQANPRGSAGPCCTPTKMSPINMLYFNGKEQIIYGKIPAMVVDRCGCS
The test is described as follows: SPR (Biacore), anti-Fc capture of receptor. As for the experimental part:
as §1

The target of a further test is T3, activin B (UniProt P09529 293-407).
T3 sequence (looked up): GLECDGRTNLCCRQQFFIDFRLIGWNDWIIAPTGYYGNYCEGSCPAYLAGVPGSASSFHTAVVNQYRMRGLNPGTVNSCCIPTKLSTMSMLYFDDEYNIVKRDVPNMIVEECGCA
The test is described as follows: SPR (Biacore), anti-Fc capture of receptor. Here is the method: as §1
Background: In SPR one partner is held on a chip, and binding of the other changes the refractive index at the surface.

In another test the target is T4, BMP6 (UniProt P22004 382-513, limits assumed).
T4 sequence (looked up): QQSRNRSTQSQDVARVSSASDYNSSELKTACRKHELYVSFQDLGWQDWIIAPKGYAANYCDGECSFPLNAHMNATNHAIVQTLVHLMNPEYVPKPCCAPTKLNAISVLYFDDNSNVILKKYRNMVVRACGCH
The test is described as follows: SPR (Biacore), anti-Fc capture of receptor. Here is the method: as §1

For the test “GDF11”, the target named is B3. Briefly: SPR (Biacore), anti-Fc capture of receptor. As for the experimental part:
as §1

In a further test the target is T5, GDF3 (UniProt Q9NR23 251-364).
T5 sequence (looked up): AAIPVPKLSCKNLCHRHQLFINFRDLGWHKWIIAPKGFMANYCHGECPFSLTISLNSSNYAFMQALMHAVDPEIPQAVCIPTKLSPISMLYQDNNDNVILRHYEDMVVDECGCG
The test is described as follows: SPR (Biacore), anti-Fc capture of receptor. Here is the method:
as §1

The next test concerns the target T6, BMP9 (UniProt Q9UK05 320-429).
T6 construct: also called GDF2
T6 sequence (looked up): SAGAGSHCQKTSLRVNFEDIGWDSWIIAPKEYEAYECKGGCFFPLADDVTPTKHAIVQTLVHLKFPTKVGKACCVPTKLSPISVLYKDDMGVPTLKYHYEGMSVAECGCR
Briefly: SPR (Biacore), anti-Fc capture of receptor. As for the experimental part:
as §1

Test [2] deals with T7, BMP10 (UniProt O95393 317-424).
T7 sequence (looked up): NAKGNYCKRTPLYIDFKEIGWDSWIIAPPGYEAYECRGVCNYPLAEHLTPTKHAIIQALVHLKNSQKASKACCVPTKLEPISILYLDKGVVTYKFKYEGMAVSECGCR
Briefly: SPR (Biacore), anti-Fc capture of receptor. As for the experimental part:
as §1

In test [3] the target is T1, activin A. The test is described as follows: SPR (Biacore), anti-Fc capture of receptor, 37 C. As for the experimental part:
(§2) A Biacore™-based binding assay was used to compare the ligand binding kinetics of an ActRIIB-Fc:ActRIIB(L79E)-Fc heterodimer with those of unmodified ActRIIB-Fc homodimer. Fusion proteins were captured onto the system using an anti-Fc antibody. Ligands were then injected and allowed to flow over the captured receptor protein at 37° C. Results are summarized in the table below, in which ligand off-rates (kd) most indicative of effective ligand traps are denoted in bold.

Test [4] concerns the target T7, BMP10. Briefly: SPR (Biacore), anti-Fc capture of receptor, 37 C. Here is the method: as §2
Another test has as its target T8, ActRIIA-mFc (human, UniProt P27037 21-135).
T8 construct: not shown: minimal linker and mouse Fc domain
Briefly: SPR (Biacore), ligand amine-coupled on CM5 chip. Here is the method:
GDF11 or activin A were immobilized on a Biacore™ CM5 chip using standard amine-coupling procedure. ActRIIA-hFc and ActRIIA-mFc proteins were loaded onto the system, and binding was measured. […] See FIG. 15A-B. Using a similar binding assay, ActRIIA-hFc was determined to have high to moderate affinity for other TGF-beta superfamily ligands including, for example, activin B, GDF8, BMP6, and BMP10. ActRIIA-mFc behaved similarly.

T8 sequence (P27037 21-135): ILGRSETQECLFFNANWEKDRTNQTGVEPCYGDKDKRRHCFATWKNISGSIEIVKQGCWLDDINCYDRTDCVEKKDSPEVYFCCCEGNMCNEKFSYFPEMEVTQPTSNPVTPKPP

B1: ActRIIB-Fc:ALK4-Fc heterodimer (Fc fusion)
chain 1: GRGEAETRECIYYNANWELERTNQSGLERCEGEQDKRLHCYASWRNSSGTIELVKKGCWLDDFNCYDRQECVATEENPQVYFCCCEGNFCNERFTHLPEAGGPEVTYEPPPTAPTGGGTHTCPPCPAPELLGGPSVFLFPPKPKDTLMISRTPEVTCVVVDVSHEDPEVKFNWYVDGVEVHNAKTKPREEQYNSTYRVVSVLTVLHQDWLNGKEYKCKVSNKALPAPIEKTISKAKGQPREPQVYTLPPSRKEMTKNQVSLTCLVKGFYPSDIAVEWESNGQPENNYKTTPPVLKSDGSFFLYSKLTVDKSRWQQGNVFSCSVMHEALHNHYTQKSLSLSPGK
chain 2: SGPRGVQALLCACTSCLQANYTCETDGACMVSIFNLDGMEHHVRTCIPKVELVPAGKPFYCLSSEDLRNTHCCYTDYCNRIDLRVPSGHLKEPEHPSMWGPVETGGGTHTCPPCPAPELLGGPSVFLFPPKPKDTLMISRTPEVTCVVVDVSHEDPEVKFNWYVDGVEVHNAKTKPREEQYNSTYRVVSVLTVLHQDWLNGKEYKCKVSNKALPAPIEKTISKAKGQPREPQVYTLPPSREEMTKNQVSLTCLVKGFYPSDIAVEWESNGQPENNYDTTPPVLDSDGSFFLYSDLTVDKSRWQQGNVFSCSVMHEALHNHYTQKSLSLSPG
notes: the receptor domains are the same in all; also called ALK4-Fc:ActRIIB-Fc heterodimer; ActRIIB-Fc:ALK4-Fc heterodimeric complex
Regarding B1, the Kd with activin A [1] was 0.012 nM; in the test with GDF8, 0.55 nM; with activin B, 0.006 nM; with BMP6 it was 2.7 nM; in the test with GDF11, 0.003 nM; in the test with GDF3 it was 4.9 nM. Moreover, the dissociation constant Kd turned out to be 3.4 nM with BMP9 and 0.074 nM with BMP10 [2]. The koff with activin A [1] was 0.00015 s⁻¹; with GDF8, 0.00021 s⁻¹; with activin B, 4e-05 s⁻¹; with BMP6, 0.0055 s⁻¹; with GDF11, 0.00011 s⁻¹; with GDF3 it was 0.017 s⁻¹. In the test with BMP10 [2], this molecule came in with a dissociation rate constant (koff) of 0.0041 s⁻¹. The kon was 1.3e+07 M⁻¹ s⁻¹ with activin A [1]; 390000 M⁻¹ s⁻¹ with GDF8; 7.1e+06 M⁻¹ s⁻¹ in the test with activin B; 2e+06 M⁻¹ s⁻¹ with BMP6; 3.8e+07 M⁻¹ s⁻¹ with GDF11; 3.4e+06 M⁻¹ s⁻¹ with GDF3. This molecule also gave a kon with BMP10 [2] of 5.6e+07 M⁻¹ s⁻¹.

B2: ActRIIB-Fc:ActRIIB(L79E)-Fc heterodimer (Fc fusion)
chain 1: GRGEAETRECIYYNANWELERTNQSGLERCEGEQDKRLHCYASWRNSSGTIELVKKGCWEDDFNCYDRQECVATEENPQVYFCCCEGNFCNERFTHLPEAGGPEVTYEPPPTAPTGGGTHTCPPCPAPELLGGPSVFLFPPKPKDTLMISRTPEVTCVVVDVSHEDPEVKFNWYVDGVEVHNAKTKPREEQYNSTYRVVSVLTVLHQDWLNGKEYKCKVSNKALPAPIEKTISKAKGQPREPQVYTLPPSREEMTKNQVSLTCLVKGFYPSDIAVEWESNGQPENNYDTTPPVLDSDGSFFLYSDLTVDKSRWQQGNVFSCSVMHEALHNHYTQKSLSLSPG
chain 2: GRGEAETRECIYYNANWELERTNQSGLERCEGEQDKRLHCYASWRNSSGTIELVKKGCWLDDFNCYDRQECVATEENPQVYFCCCEGNFCNERFTHLPEAGGPEVTYEPPPTAPTGGGTHTCPPCPAPELLGGPSVFLFPPKPKDTLMISRTPEVTCVVVDVSHEDPEVKFNWYVDGVEVHNAKTKPREEQYNSTYRVVSVLTVLHQDWLNGKEYKCKVSNKALPAPIEKTISKAKGQPREPQVYTLPPSRKEMTKNQVSLTCLVKGFYPSDIAVEWESNGQPENNYKTTPPVLKSDGSFFLYSKLTVDKSRWQQGNVFSCSVMHEALHNHYTQKSLSLSPGK
notes: the receptor domains are the same in both; also called ActRIIB-Fc:ActRIIB(L79E)-Fc heteromer
B2: the “fold faster off-rate than ActRIIB-Fc homodimer” value with activin A [3] and in the test with BMP10 [4] was about 10 fold each time.
For B3, in the test with ActRIIA-mFc, the binding result is given as “binds”.
